Reference: patent publication US20060121535

How the values were obtained:
[1] = test system: GST-EEEIYGEFE (SEQ. ID. NO: 1) fusion protein
GST-Crkl (SH3) = GST-Crkl (SH3) (UniProt P46109)
GST-Crkl (SH3), sequence (P46109 120-303): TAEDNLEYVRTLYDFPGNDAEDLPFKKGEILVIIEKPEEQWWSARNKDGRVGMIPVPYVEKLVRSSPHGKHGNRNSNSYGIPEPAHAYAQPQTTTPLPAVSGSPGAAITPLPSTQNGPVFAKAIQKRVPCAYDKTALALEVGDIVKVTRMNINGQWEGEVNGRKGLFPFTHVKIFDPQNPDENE

Row | Substance | Km of phosphorylation, substrate in solution (Lineweaver-Burk) [1] | Km of phosphorylation, surface-immobilized substrate (Lineweaver-Burk) [1] | Vmax of phosphorylation, substrate in solution (Lineweaver-Burk) [1] | Vmax of phosphorylation, surface-immobilized substrate (Lineweaver-Burk) [1] | Crkl phosphorylation in pure HL60 lysate (Bcr-Abl-) relative to pure K562 lysate (Bcr-Abl+) (GST-Crkl (SH3))
1 | protein-tyrosine kinase p60^c-src (Calbiochem) | Km=2.7±1.0 µM | Km=0.36±0.033 µM | Vmax=8.1±3.1 (arbitrary units) | Vmax=9.7±0.63 (arbitrary units) | –
2 | Bcr-Abl tyrosine kinase in K562 cell lysate | – | – | – | – | the level of Crkl phosphorylation in the pure HL60 cell lysate is only 3.5% of that observed in the pure K562 cell lysate
